B1: bovine P45017α: bovine cytochrome P450 steroid 17α-hydroxylase expressed in K. lactis under the lactase promoter (protein, UniProt P05185 1-509, looked up)
Steroid …: MWLLLAVFLLTLAYLFWPKTKHSGAKYPRSLPSLPLVGSLPFLPRRGQQHKNFFKLQEKYGPIYSFRLGSKTTVMIGHHQLAREVLLKKGKEFSGRPKVATLDILSDNQKGIAFADHGAHWQLHRKLALNAFALFKDGNLKLEKIINQEANVLCDFLATQHGEAIDLSEPLSLAVTNIISFICFNFSFKNEDPALKAIQNVNDGILEVLSKEVLLDIFPVLKIFPSKAMEKMKGCVQTRNELLNEILEKCQENFSSDSITNLLHILIQAKVNADNNNAGPDQDSKLLSNRHMLATIGDIFGAGVETTTSVIKWIVAYLLHHPSLKKRIQDDIDQIIGFNRTPTISDRNRLVLLEATIREVLRIRPVAPTLIPHKAVIDSSIGDLTIDKGTDVVVNLWALHHSEKEWQHPDLFMPERFLDPTGTQLISPSLSYLPFGAGPRSCVGEMLARQELFLFMSRLLQRFNLEIPDDGKLPSLEGHASLVLQIKPFKVKIEVRQAWKEAQAEGSTP
B2: type II 3β HSDH: human 3β HSDH type II, isolated from adrenals and gonads (protein, UniProt P26439 1-372, looked up)
3 beta-hydroxysteroid …: MGWSCLVTGAGGLLGQRIVRLLVEEKELKEIRALDKAFRPELREEFSKLQNRTKLTVLEGDILDEPFLKRACQDVSVVIHTACIIDVFGVTHRESIMNVNVKGTQLLLEACVQASVPVFIYTSSIEVAGPNSYKEIIQNGHEEEPLENTWPTPYPYSKKLAEKAVLAANGWNLKNGDTLYTCALRPTYIYGEGGPFLSASINEALNNNGILSSVGKFSTVNPVYVGNVAWAHILALRALRDPKKAPSVRGQFYYISDDTPHQSYDNLNYILSKEFGLRLDSRWSLPLTLMYWIGFLLEVVSFLLSPIYSYQPPFNRHTVTLSNSVFTFSYKKAQRDLAYKPLYSWEEAKQKTVEWVGSLVDRHKETLKSKTQ
B3: type I enzyme: human 3β-hydroxy-5-ene steroid dehydrogenase/5-ene-4-ene isomerase type I, isolated from placenta, also expressed in skin (protein, UniProt P14060 2-373, looked up)
3 beta-hydroxysteroid …: TGWSCLVTGAGGFLGQRIIRLLVKEKELKEIRVLDKAFGPELREEFSKLQNKTKLTVLEGDILDEPFLKRACQDVSVIIHTACIIDVFGVTHRESIMNVNVKGTQLLLEACVQASVPVFIYTSSIEVAGPNSYKEIIQNGHEEEPLENTWPAPYPHSKKLAEKAVLAANGWNLKNGGTLYTCALRPMYIYGEGSRFLSASINEALNNNGILSSVGKFSTVNPVYVGNVAWAHILALRALQDPKKAPSIRGQFYYISDDTPHQSYDNLNYTLSKEFGLRLDSRWSFPLSLMYWIGFLLEIVSFLLRPIYTYRPPFNRHIVTLSNSVFTFSYKKAQRDLAYKPLYSWEEAKQKTVEWVGSLVDRHKETLKSKTQ
B4: purified ADX: adrenodoxin purified from bovine adrenal cortex, 10 μM in buffer (protein)
chain: SSSEDKITVHFINRDGETLTTKGKIGDSLLDVVVQNNLDIDGFGACEGTLACSTCHLIFEQHIFEKLEAITDEENDMLDLAYGLTDRSRLGCQICLTKAMDNMTVRVPDAVSDARESIDMGMNSSKIE

Key:
progesterone = assay: In vivo activity of bovine P45017α in whole cells of transformed Kluyveromyces lactis (3H-labelled steroid, RP-HPLC); format: cell-based; conditions: expressed in K. lactis under the lactase promoter
Method: Transformation of K. lactis strain CBS 2360 was performed with pGB 17α-5 as described in Example 14 and in vivo activity was determined in the whole cells of the transformed K. lactis strain. Four independent transformants (17α-3,17α-7,17α-10 and 17α-11) were grown in rich medium (10 g of yeast extracts, 10 g of bactopeptone and 20 g of glucose/liter) for 72 hours to reach an A600 of at least 30. The cells were harvested and resuspended at 1×10^6 cells/ml (A600 =1).
Five ml of culture were incubated in the presence of ^3H-labelled progesterone (20 μM) for 24 hours at 28° C. and then were extracted with dichloromethane. […] The amount of 17α-hydroxyprogesterone was about 40% (about 23% to 58% depending on the transformant) of the substract added (see FIG. 57 corresponding to 17α-3). No androstenedione, which was the product of the C17-20-lyase activity of P45017α, was detected.
^3H-labelled 17α-hydroxyprogesterone was also incubated with the transformants under the conditions described above and after 24 hours of incubation, no androstenedione was detected.

pregnenolone = conditions: after expression in HeLa cells of the respective cDNA's; cited from earlier work
cytochrome P450SCC = biological target: T1, cytochrome P450SCC (Bos taurus, UniProt P00189); assay: ADX activity (electron transfer from adrenodoxin reductase to cytochrome P450SCC) in cell-free extracts by P450SCC activity assay; format: biochemical, bovine; conditions: within 15 minutes at 30° C.
T1 construct: 1.5 μM of P450 SCC (purified from bovine adrenal cortex); from tissue; host or cells: bovine adrenal cortex
T1 sequence (P00189 40-520): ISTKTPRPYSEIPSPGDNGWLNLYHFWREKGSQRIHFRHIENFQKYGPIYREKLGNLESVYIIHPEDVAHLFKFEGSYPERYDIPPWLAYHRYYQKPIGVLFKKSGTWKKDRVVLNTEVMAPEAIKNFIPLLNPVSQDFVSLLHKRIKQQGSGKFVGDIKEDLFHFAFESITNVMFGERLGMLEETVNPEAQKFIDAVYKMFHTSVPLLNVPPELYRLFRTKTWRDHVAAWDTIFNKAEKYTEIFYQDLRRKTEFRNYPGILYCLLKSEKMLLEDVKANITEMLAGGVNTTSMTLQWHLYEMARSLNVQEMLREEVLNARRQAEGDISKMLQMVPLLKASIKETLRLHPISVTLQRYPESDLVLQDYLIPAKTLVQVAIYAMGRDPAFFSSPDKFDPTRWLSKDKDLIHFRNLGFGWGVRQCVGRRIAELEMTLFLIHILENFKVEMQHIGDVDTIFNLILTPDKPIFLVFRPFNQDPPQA
Method: K. lactis ADX-102, obtained as described in Example 23, and control strain K. lactis CBS 2360 were grown in 100 ml of YEPD medium (1% yeast extract, 2% peptone, 2% glucose monohydrate) containing 2.5 ml of a 6.7% (w/w) yeast nitrogen base (Difco laboratories) solution and 100 mg 1^−1 of geneticin (G418 sulfate; Gibco Ltd.), for 56 hours at 30° C. The cells were collected by centrifugation (4,000×g, 15 minutes), resuspended in a physiological salt solution and washed with a phosphate buffer (pH 7.0, 50 mM). After centrifugation (4,000×g, 15 minutes), the pellet was resuspended in a phosphate buffer (pH 7.0, 50 mM) resulting in a suspension containing 0.5 g cell wet weight/ml. The cells were disrupted using a Braun MSK Homogenizer (6×15 seconds, 0.45-0.50 mm glass beads) and unbroken cells were removed by centrifugation (4,000×g, 15 minutes). […]
ADX activity, i.e. electrotransfer capacity from adrenodoxin reductase to cytochrome P450SCC, in the cell-free extracts was determined by a P450SCC activity assay. […]
The assay was started by mixing 75 μl of solution A with 50 μl of solution B and 125 μl of cell-free extract or 125 μl of a potassium phosphate buffer (50 mM, pH 7.0) containing 10 μM ADX (purified from bovine adrenal cortex). […] The suspension was heated for 15 minutes at 120° C. and then, the ^14C/^3H ratio was determined by double label liquid scintillation counting. […]

Molecule	Km (pregnenolone)	other results
B1	–	C17-20 lyase activity (progesterone): does not show any activity C17-20 lyase
B2	1.2 µM	–
B3	0.24 µM	–
B4	–	yield of cholesterol side chain cleavage (cytochrome P450SCC): 50%
